Results as given in paper PMC10866396 (Molecular cancer therapeutics, 2023).

Biological target: Avi-tagged-eIF4E (human, UniProt P06730 1-217, biotin (co-transfected bacterial biotin ligase BirA; loaded on streptavidin tips))
Assay: BLI

Sequence of Avi-tagged-eIF4E (P06730 whole entry): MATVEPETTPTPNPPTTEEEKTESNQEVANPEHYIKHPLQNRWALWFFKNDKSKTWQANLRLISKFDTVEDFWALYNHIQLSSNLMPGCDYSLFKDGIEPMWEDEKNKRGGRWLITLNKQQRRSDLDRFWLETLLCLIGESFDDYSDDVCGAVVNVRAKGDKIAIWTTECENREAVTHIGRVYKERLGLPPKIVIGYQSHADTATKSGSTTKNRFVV

Kd: 25 µM
Binder: YPYAASPA [Pep8 peptide]
